For 1 variant, response results are on record in paper PMC3990635.

First the molecules themselves.
B1: PAR1-Venus [mouse] / RGS2-Luciferase [not stated] (parent)
chain 1: MQSAMFLAVQHDCRPMDKSAGSGHKSEEKREKMKRTLLKDWKTRLSYFLQNSSTPGKPKTGKKSKQQAFIKPSPEEAQLWSEAFDELLASKYGLAAFRAFLKSEFCEENIEFWLACEDFKKTKSPQKLSSKARKIYTDFIEKEAPKEINIDFQTKTLIAQNIQEATSGCFTTAQKRVYSLMENNSYPRFLESEFYQDLCKKPQITTEPHAT
chain 2: SFFLRNPSENTFELVPLGDEEEEEKNESVLLEGRAVYLNISLPPHTPPPPFISEDASGYLTSPWLTLFMPSVYTIVFIVSLPLNVLAIAVFVLRMKVKKPAVVYMLHLAMADVLFVSVLPFKISYYFSGTDWQFGSGMCRFATAAFYGNMYASIMLMTVISIDRFLAVVYPIQSLSWRTLGRANFTCVVIWVMAIMGVVPLLLKEQTTRVPGLNITTCHDVLSENLMQGFYSYYFSAFSAIFFLVPLIVSTVCYTSIIRCLSSSAVANRSKKSRALFLSAAVFCIFIVCFGPTNVLLIVHYLFLSDSPGTEAAYFAYLLCVCVSSVSCCIDPLIYYYASSECQRHLYSILCCKESSDPNSCNSTGQLMPSKMDTCSSHLNNSIYKKLLA

Variants of B1 are the subject of the first experiment. As to the kind of experiment: BRET assay in live COS7 cells. The following applies: with RGS2-Luciferase; RGS2-Luc 35 ng; PAR1R205A-Ven 1.5 µg; no Gα11; no TFLLR; parent: 0.028; read off a plot.
As for chain 2 SFFLRNPSENTFELVPLGDEEEEEKNESVLLEGRAVYLNISLPPHTPPPPFISEDASGYLTSPWLTLFMPSVYTIVFIVSLPLNVLAIAVFVLRMKVKKPAVVYMLHLAMADVLFVSVLPFKISYYFSGTDWQFGSGMCRFATAAFYGNMYASIMLMTVISIDAFLAVVYPIQSLSWRTLGRANFTCVVIWVMAIMGVVPLLLKEQTTRVPGLNITTCHDVLSENLMQGFYSYYFSAFSAIFFLVPLIVSTVCYTSIIRCLSSSAVANRSKKSRALFLSAAVFCIFIVCFGPTNVLLIVHYLFLSDSPGTEAAYFAYLLCVCVSSVSCCIDPLIYYYASSECQRHLYSILCCKESSDPNSCNSTGQLMPSKMDTCSSHLNNSIYKKLLA [chain 2 R164A], the response worked out at 0.032.

The same experiment, now with this note: with RGS2-Luciferase; RGS2-Luc 35 ng; PAR1R205A-Ven 1.5 µg; no Gα11; with TFLLR; parent: 0.048; read off a plot.
As for chain 2 SFFLRNPSENTFELVPLGDEEEEEKNESVLLEGRAVYLNISLPPHTPPPPFISEDASGYLTSPWLTLFMPSVYTIVFIVSLPLNVLAIAVFVLRMKVKKPAVVYMLHLAMADVLFVSVLPFKISYYFSGTDWQFGSGMCRFATAAFYGNMYASIMLMTVISIDAFLAVVYPIQSLSWRTLGRANFTCVVIWVMAIMGVVPLLLKEQTTRVPGLNITTCHDVLSENLMQGFYSYYFSAFSAIFFLVPLIVSTVCYTSIIRCLSSSAVANRSKKSRALFLSAAVFCIFIVCFGPTNVLLIVHYLFLSDSPGTEAAYFAYLLCVCVSSVSCCIDPLIYYYASSECQRHLYSILCCKESSDPNSCNSTGQLMPSKMDTCSSHLNNSIYKKLLA [chain 2 R164A], the response is 0.037.

Staying with this experiment, now noted: with RGS2-Luciferase; RGS2-Luc 35 ng; PAR1R205A-Ven 1.5 µg; with 0.5 µg untagged Gα11; no TFLLR; parent: 0.062; read off a plot.
Consider chain 2 SFFLRNPSENTFELVPLGDEEEEEKNESVLLEGRAVYLNISLPPHTPPPPFISEDASGYLTSPWLTLFMPSVYTIVFIVSLPLNVLAIAVFVLRMKVKKPAVVYMLHLAMADVLFVSVLPFKISYYFSGTDWQFGSGMCRFATAAFYGNMYASIMLMTVISIDAFLAVVYPIQSLSWRTLGRANFTCVVIWVMAIMGVVPLLLKEQTTRVPGLNITTCHDVLSENLMQGFYSYYFSAFSAIFFLVPLIVSTVCYTSIIRCLSSSAVANRSKKSRALFLSAAVFCIFIVCFGPTNVLLIVHYLFLSDSPGTEAAYFAYLLCVCVSSVSCCIDPLIYYYASSECQRHLYSILCCKESSDPNSCNSTGQLMPSKMDTCSSHLNNSIYKKLLA [chain 2 R164A], for which the response amounted to 0.047.

Still in this experiment, the particulars now being: with RGS2-Luciferase; RGS2-Luc 35 ng; PAR1R205A-Ven 1.5 µg; with 0.5 µg untagged Gα11; with TFLLR; parent: 0.086; read off a plot.
Regarding chain 2 SFFLRNPSENTFELVPLGDEEEEEKNESVLLEGRAVYLNISLPPHTPPPPFISEDASGYLTSPWLTLFMPSVYTIVFIVSLPLNVLAIAVFVLRMKVKKPAVVYMLHLAMADVLFVSVLPFKISYYFSGTDWQFGSGMCRFATAAFYGNMYASIMLMTVISIDAFLAVVYPIQSLSWRTLGRANFTCVVIWVMAIMGVVPLLLKEQTTRVPGLNITTCHDVLSENLMQGFYSYYFSAFSAIFFLVPLIVSTVCYTSIIRCLSSSAVANRSKKSRALFLSAAVFCIFIVCFGPTNVLLIVHYLFLSDSPGTEAAYFAYLLCVCVSSVSCCIDPLIYYYASSECQRHLYSILCCKESSDPNSCNSTGQLMPSKMDTCSSHLNNSIYKKLLA [chain 2 R164A], the response was found to be 0.048.
